Laboratory results as given in article PMC9789309.

How the values were obtained:
[1] = target: ACE2, membrane-anchored, endogenously expressed on VeroE6 cells (African green monkey (endogenous in VeroE6)); assay: single-molecule force spectroscopy (AFM)
[2] = target: ACE2, membrane-anchored, endogenously expressed on VeroE6 cells (African green monkey (endogenous in VeroE6)); assay: single-molecule force spectroscopy (AFM) + kinetic model

Row | Substance | Kd [1] [nM] | on-rate of three bonds [1] [s⁻¹] | on-rate of two bonds [1] [s⁻¹] | percentage of one bond [1] [%] | bond lifetime at 20 pN (calculated) [2] [s] | bond lifetime at zero force (calculated) [2] [s] | percentage of three bonds [1] [%] | percentage of two bonds [1] [%]
1 | SARS-CoV-2 Delta variant RBD monomer (from UniProt P0DTC2) (domain or fragment) | 0.97 | – | – | – | – | – | – | –
2 | SARS-CoV-2 Delta variant Spike trimer (from UniProt P0DTC2) (natural protein) | 0.5 | 23 | 80 | 68.7 | 460 | 42000 | – | –
3 | SARS-CoV-2 Omicron (B.1.1.529) variant RBD monomer (from UniProt P0DTC2) (domain or fragment) | 0.068 | – | – | – | – | – | – | –
4 | SARS-CoV-2 Omicron (B.1.1.529) variant Spike trimer (from UniProt P0DTC2) (natural protein) | 0.055 | – | 49 | 85.4 | 960 | 370000 | 1 | 13.6
